The values that follow are results of earlier work, collected in publication PMC10172704 (Poultry Science, 2023).

Read-outs that look alike come from different tables or passages of the source.

Data set [1] has as its system Escherichia coli. Conditions: ref Wang et al., 2020.
The subject of data set [2] is Staphylococcus aureus. The settings on record: ref Wang et al., 2020.

B1: Milk lactoferrin: milk lactoferrin; literature MICs, also after proteolytic digestion by pepsin (protein, UniProt P02788 20-710, looked up)
Lactotransferrin: GRRRSVQWCAVSQPEATKCFQWQRNMRKVRGPPVSCIKRDSPIQCIQAIAENRADAVTLDGGFIYEAGLAPYKLRPVAAEVYGTERQPRTHYYAVAVVKKGGSFQLNELQGLKSCHTGLRRTAGWNVPIGTLRPFLNWTGPPEPIEAAVARFFSASCVPGADKGQFPNLCRLCAGTGENKCAFSSQEPYFSYSGAFKCLRDGAGDVAFIRESTVFEDLSDEAERDEYELLCPDNTRKPVDKFKDCHLARVPSHAVVARSVNGKEDAIWNLLRQAQEKFGKDKSPKFQLFGSPSGQKDLLFKDSAIGFSRVPPRIDSGLYLGSGYFTAIQNLRKSEEEVAARRARVVWCAVGEQELRKCNQWSGLSEGSVTCSSASTTEDCIALVLKGEADAMSLDGGYVYTAGKCGLVPVLAENYKSQQSSDPDPNCVDRPVEGYLAVAVVRRSDTSLTWNSVKGKKSCHTAVDRTAGWNIPMGLLFNQTGSCKFDEYFSQSCAPGSDPRSNLCALCIGDEQGENKCVPNSNERYYGYTGAFRCLAENAGDVAFVKDVTVLQNTDGNNNEAWAKDLKLADFALLCLDGKRKPVTEARSCHLAMAPNHAVVSRMDKVERLKQVLLHQQAKFGRNGSDCPDKFCLFQSETKNLLFNDNTECLARLHGKTTYEKYLGPQYVAGITNLKKCSTSPLLEACEFLRK
Regarding B1, the MIC in data set [1] (after proteolytic digestion by pepsin) is 65 mg/mL; in data set [1] it was 130 mg/mL; in data set [2] it was 260 mg/mL.

By MIC is commonly meant the lowest concentration that inhibits growth of the organism.
